Results as given in patent US20240368668A1, “SUBSTRATES AND BIOMARKERS OF ADAMTS7” (The Broad Institute, Inc., priority 2021, published 2024).
Square brackets hold non-standard residues; d marks the D form. Ends that are not written are not given here. Met(O) = CS(=O)CC[C@H](N)C(=O)O

Target: T1, mouse ADAMTS7 (Mus musculus, UniProt Q68SA9)
T1 construct: Full-length mouse Adamts7 1-1857 (Uniprot Q68SA9, WT or E373Q catalytic mutant); expressed in transfected cells; host or cells: Human Coronary Artery Smooth Muscle Cells (HCA-SMC, Lonza), adenovirus 50 MOI
T1 sequence (Q68SA9 221-1657): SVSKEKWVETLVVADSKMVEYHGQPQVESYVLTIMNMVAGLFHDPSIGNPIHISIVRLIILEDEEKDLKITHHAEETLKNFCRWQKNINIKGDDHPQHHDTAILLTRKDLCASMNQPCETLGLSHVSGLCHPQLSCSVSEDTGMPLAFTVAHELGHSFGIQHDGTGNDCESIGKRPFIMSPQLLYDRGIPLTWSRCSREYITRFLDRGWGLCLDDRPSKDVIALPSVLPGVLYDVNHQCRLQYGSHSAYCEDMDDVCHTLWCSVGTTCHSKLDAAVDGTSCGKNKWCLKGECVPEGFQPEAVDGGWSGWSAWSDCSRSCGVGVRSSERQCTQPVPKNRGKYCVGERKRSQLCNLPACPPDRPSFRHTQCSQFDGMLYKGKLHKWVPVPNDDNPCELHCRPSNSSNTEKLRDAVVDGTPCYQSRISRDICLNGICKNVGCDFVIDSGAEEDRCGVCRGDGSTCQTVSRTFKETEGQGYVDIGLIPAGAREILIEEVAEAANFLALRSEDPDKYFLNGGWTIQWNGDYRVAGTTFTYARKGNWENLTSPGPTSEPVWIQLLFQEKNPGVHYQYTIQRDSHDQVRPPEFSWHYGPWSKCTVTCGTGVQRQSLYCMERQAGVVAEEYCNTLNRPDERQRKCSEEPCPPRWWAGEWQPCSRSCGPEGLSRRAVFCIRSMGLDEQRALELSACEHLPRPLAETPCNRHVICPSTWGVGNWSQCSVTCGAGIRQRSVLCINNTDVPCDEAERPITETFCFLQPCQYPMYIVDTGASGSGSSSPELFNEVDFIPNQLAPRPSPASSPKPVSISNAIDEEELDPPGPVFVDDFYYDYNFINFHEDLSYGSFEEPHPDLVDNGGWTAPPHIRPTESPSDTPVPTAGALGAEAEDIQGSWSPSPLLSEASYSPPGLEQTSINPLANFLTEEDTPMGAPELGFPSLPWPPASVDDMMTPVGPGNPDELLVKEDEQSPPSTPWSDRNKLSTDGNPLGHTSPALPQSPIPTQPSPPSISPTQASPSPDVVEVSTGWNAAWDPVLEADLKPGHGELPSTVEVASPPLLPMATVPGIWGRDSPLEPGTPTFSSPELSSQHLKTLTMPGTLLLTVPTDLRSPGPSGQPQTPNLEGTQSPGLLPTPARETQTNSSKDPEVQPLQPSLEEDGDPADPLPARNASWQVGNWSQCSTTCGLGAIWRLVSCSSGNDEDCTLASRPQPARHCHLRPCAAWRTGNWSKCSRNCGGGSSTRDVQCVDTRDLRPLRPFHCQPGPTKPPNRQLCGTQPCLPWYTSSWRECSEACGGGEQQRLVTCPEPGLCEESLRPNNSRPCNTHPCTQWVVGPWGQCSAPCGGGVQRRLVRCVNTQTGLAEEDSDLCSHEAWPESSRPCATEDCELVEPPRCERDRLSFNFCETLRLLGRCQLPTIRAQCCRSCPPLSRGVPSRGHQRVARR
Assay: TMT10 TAILS N-terminomics, SMC2 experiment (process replicates, trypsin/AspN digest)
Format: cell-based
Conditions: for logFC.mWT.over.Luc: SMC2_TAILS HC; for logFC.mWT.over.Lux: ADAMTS7 WT over luciferase
Procedure, shortened: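 Full-length mouse ADAMTS7 (WT or E373Q mutant, C-terminal 3xFLAG) or luciferase was transduced via adenovirus, 50 MOI, into HCA-SMC (SMC1, SMC2) or HUVEC. SMC1: pooled media, technical triplicates 400 ug; SMC2: process triplicates 300 ug; HUVEC: process triplicates 200 ug, bFGF2 10 ng/ml.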

[1] = log fold change of N-terminal peptide, Ad-mADAMTS7 WT over Luc

| logFC.mWT.over.Luc [1] | logFC.mWT.over.Lux (log fold change) | logFC.mWT.over.Luc (log fold change, mWT over Luc) | Substance |
| --- | --- | --- | --- |
| 4.80 |  |  | LTBP3_103 (LTGSGFR; listed as Homo sapiens) |
|  | 4.65 |  | THBS2_290 (LSENLKR; listed as Homo sapiens) |
| 1.68 |  |  | MAP4_815 (AVASTGPSSR; listed as Homo sapiens) |
| 1.20 |  |  | QSOX1_210 (HKGVAVR; listed as Homo sapiens) |
|  |  | 2.71 | COL1A2_960 (AGAPGPHGPVGPAGKHGNR; listed as Homo sapiens) |
| 3.06 | 2.63 |  | VIM_314 (QESTEYR; listed as Homo sapiens) |
| 2.04 |  |  | NBEA_1892 (LEKVAPLLR; listed as Homo sapiens) |
| 1.08 |  |  | MMP1_185 (FQPGPGIGG; listed as Homo sapiens) |
|  |  | 1.38 | COL4A2_71 (YNGPPGLQGFPGLQGR; listed as Homo sapiens) |
| 2.47 |  |  | PAK4_141 (HSEAGGGSG; listed as Homo sapiens) |
| 2.35 |  |  | MMP1_100 (FVLTEGNPR; listed as Homo sapiens) |
| 3.75 | 4.37 |  | VIM_333 (LKGTNESLER; listed as Homo sapiens) |
|  |  | 0.82 | COL1A2_80 (QYDGKGVGLGPGPMGLMGPR; listed as Homo sapiens) |
| 2.03 |  |  | SPOCK1_27 (LAGGAGPNHGNFL; listed as Homo sapiens) |
|  |  | 1.60 | COL1A2_305 (LTGAKGAAGLPGVAGAPGLPGPR; listed as Homo sapiens) |
|  |  | 2.03 | COL1A2_630 (VGTAGPSGPSGLPGER; listed as Homo sapiens) |
| 1.72 |  |  | LOXL1_218 (AVASAGVIYPYQPR; listed as Homo sapiens) |
| 3.16 |  |  | NID2_291 (HSSVPLGR; listed as Homo sapiens) |
| 1.54 |  |  | LTBP2_79 (VAGLQPVER; listed as Homo sapiens) |
| 2.49 |  |  | LTBP2_250 (SAAGEGTLAR; listed as Homo sapiens) |
| 3.22 |  |  | VAT1_42 (AASPPLLR; listed as Homo sapiens) |
| 2.62 |  |  | LOXL2_45 (HQPQAPANVAKIQLR; listed as Homo sapiens) |

| logFC.mWT.over.Luc [1] | logFC.mWT.over.Lux (log fold change) | logFC.mWT.over.Luc (log fold change, mWT over Luc) | Substance |
| --- | --- | --- | --- |
| 1.49 |  |  | TNS1_236 (QEGLAGYQR; listed as Homo sapiens) |
| 2.53 |  |  | MAP4_816 (VASTGPSSR; listed as Homo sapiens) |
|  |  | 2.76 | COL1A2_866 (LLGAPGILGLPGSR; listed as Homo sapiens) |
| 3.15 |  |  | TTN_5975 (VKEPPVEFTKPL; listed as Homo sapiens) |
|  |  | 3.42 | COL1A2_270 (VGNAGPAGPAGPR; listed as Homo sapiens) |
| 4.08 |  |  | TNPO2_744 (VQ[Met(O)]VLNNLVEII[code n]RP[code n]TPKTLLE; listed as Homo sapiens) |
| 2.73 |  |  | NID2_951 (YAYPGAR; listed as Homo sapiens) |
| 2.32 |  |  | PLIN3_75 (VSGAQPILSKL; listed as Homo sapiens) |
| 2.94 |  |  | LTBP2_290 (QHVGLSR; listed as Homo sapiens) |
|  | 3.97 |  | SERBP1_56 (QAAAQTNSNAAGKQLR; listed as Homo sapiens) |
| 1.51 |  |  | LTBP3_208 (FLVPLGPGQISA; listed as Homo sapiens) |
| 1.89 |  |  | SHC2_267 (VAKDPINQRACHIL; listed as Homo sapiens) |
| 2.66 |  |  | LTBP2_502 (LVENSVETRPPPWLPASPGHSLW; listed as Homo sapiens) |
| 2.51 |  |  | PTPRF_1859 (MRYEGVVDMFQTVKTLR; listed as Homo sapiens) |
| 3.71 | 4.23 |  | SRGN_59 (LLPGESNKIPR; listed as Homo sapiens) |
|  |  | 1.73 | COL1A2_1028 (LQGLPGIAGHHGDQGAPGSVGPAGPR; listed as Homo sapiens) |
| 2.51 |  |  | POSTN_727 (IITGPEIKYTR; listed as Homo sapiens) |
|  |  | 1.46 | COL18A1_1505 (LQPPVVQLHDSNPYPR; listed as Homo sapiens) |
| 3.16 |  |  | TRGC2_86 (HRCIVRHENNK; listed as Homo sapiens) |
| 2.47 |  |  | NID1_360 (FHQQHPQVI; listed as Homo sapiens) |
| 2.35 |  |  | PPP1R18_295 (LSETLTR; listed as Homo sapiens) |
